Results reported in PMC7116892 (Science (New York, N.Y.), 2021).

T1: Shulin (Q22YU3), recombinant full-length, C-terminal 2xStrep (Tetrahymena thermophila, UniProt Q22YU3 1-1200)
T1 sequence (looked up): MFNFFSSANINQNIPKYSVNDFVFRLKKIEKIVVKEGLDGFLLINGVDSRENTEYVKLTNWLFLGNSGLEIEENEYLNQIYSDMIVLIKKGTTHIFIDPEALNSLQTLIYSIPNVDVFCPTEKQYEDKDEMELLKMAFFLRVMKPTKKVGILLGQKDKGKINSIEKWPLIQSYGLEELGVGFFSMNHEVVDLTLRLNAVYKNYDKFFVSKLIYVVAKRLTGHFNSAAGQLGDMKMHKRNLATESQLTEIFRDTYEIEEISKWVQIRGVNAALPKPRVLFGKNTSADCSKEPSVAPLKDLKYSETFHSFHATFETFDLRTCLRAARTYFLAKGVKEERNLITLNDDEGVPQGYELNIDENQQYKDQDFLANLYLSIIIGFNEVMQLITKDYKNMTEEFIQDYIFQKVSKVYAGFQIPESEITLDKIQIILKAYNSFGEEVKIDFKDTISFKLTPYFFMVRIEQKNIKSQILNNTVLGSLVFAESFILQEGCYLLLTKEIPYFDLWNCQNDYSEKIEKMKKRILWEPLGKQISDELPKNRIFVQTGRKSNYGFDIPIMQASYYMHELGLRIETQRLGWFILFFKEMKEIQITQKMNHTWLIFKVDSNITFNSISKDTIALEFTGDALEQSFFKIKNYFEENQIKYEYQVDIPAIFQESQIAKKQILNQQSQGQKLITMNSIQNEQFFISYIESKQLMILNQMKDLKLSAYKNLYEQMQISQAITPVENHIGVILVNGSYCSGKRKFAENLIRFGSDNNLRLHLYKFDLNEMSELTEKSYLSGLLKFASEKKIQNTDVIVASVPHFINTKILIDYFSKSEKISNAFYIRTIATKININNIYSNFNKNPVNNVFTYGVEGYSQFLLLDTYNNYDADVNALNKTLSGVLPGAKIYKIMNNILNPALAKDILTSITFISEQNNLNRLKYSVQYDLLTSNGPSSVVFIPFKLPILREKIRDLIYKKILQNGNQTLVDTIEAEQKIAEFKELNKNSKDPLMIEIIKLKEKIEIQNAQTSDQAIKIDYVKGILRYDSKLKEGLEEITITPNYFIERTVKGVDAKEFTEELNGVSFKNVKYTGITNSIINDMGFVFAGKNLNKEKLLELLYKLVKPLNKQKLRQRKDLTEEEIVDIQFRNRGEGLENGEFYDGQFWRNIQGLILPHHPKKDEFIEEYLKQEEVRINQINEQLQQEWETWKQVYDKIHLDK

T2: Dic3, ODA intermediate chain (Tetrahymena thermophila, UniProt Q23FU1 1-670)
T2 sequence (looked up): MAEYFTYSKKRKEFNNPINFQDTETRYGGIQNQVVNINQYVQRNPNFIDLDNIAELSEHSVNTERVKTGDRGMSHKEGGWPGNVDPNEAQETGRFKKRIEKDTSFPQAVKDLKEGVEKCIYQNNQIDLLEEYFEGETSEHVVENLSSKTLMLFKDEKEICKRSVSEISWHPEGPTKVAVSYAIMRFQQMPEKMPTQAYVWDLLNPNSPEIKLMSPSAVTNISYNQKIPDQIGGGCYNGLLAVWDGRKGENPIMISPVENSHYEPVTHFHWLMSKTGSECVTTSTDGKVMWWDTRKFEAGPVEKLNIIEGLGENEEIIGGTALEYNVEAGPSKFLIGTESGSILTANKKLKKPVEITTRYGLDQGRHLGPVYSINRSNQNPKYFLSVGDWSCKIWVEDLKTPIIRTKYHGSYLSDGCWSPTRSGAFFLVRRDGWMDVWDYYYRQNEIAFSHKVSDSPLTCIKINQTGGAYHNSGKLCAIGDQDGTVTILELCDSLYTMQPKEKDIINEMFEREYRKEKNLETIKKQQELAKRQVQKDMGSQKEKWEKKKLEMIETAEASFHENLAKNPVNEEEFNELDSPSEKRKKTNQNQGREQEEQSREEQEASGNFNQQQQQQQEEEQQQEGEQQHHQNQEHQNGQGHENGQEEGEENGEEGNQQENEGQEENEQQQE

T3: Lc7b, roadblock ODA light chain (Tetrahymena thermophila, UniProt Q22MV2 1-159)
T3 sequence (looked up): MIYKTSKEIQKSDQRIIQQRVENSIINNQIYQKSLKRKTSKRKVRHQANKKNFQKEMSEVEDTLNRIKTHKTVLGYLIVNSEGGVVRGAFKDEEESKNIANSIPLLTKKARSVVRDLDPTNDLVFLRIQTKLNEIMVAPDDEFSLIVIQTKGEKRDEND

B1: Dic2, ODA intermediate chain (natural protein, Tetrahymena thermophila, UniProt I7M008 1-667, looked up)
chain: MPPKQTKVVASRKTVMPISRAGRAQIRRKDSNTQNNMNDQGMEDEEIDQQREGMKNQYEQLTAQELNEDMPSKMLEPKNPQAPKNITVYDYYTRKFKTDELVDQMIVHFSMDGDYIWKESNEYKTQEEIRDTKKALIKEAMRKQESEEPGANHDEEAIKQTLRNKFNYNTRECQTINPSIRERGVSTEPPPSDTICGNITQWEIFDAYYAEIMKDHQIENKKKKEVDQDKKQDQSMYSTSFKRCCKIMERMVVQNDQEDKYHDYRYYWSQGDNLEAGKNEGHLLPIWRFSNEKQRKKNVTSICWNPLYPDLFAVSLGSYDFTKQRMGLICLYSLKNTTHPEYAFNCEAGVMCLDFHPKSAALLAVGLYDGTVLVYDIRNKHKKPIYQSTVRNQKHTDPVWQVKWNPDTSKNYNFYSISSDGRVMNWILMKNKLEPEEVILLRLVGKNEEESTLIGLACGLCFDFNKFEPHIFLVGTEEGKIHKCSRAYSGQYQETYNGHLLAVYKVKWNNFHPRTFISASADWTVRIWDSKYTSQIICFDLSMMVVDAVWAPYSSTVFACATMDKVQVYDLNVDKLNKLAEQKIVKQPKLTNLSFNYKDPILLVGDSHGGVTLVKLSPNLCKSGPEIKQTEDKKAMEEFKNVKIEDYEREKMENLLAVVSKWEREDA

Assays:
Test in all cases: cryo-EM structure
[1] = biological target: T1, Shulin (Q22YU3), recombinant …
[2] = biological target: B1
[3] = biological target: T2, Dic3, ODA intermediate chain
[4] = biological target: T3, Lc7b, roadblock ODA light chain

| Binder | binding result [1] | binding result [2] | binding result [3] | binding result [4] |
| --- | --- | --- | --- | --- |
| Lc8e, ODA light chain (natural protein, Tetrahymena thermophila, UniProt Q24DI9 1-93, looked up) MGDHANEQIIDMPENSEMKSMKNDAFSQAKFAVENYKFENKISSHIKKFFDEKYGPNWHCVVGKHFNAYVSYDSKNFIFFYEGQLAILLYRKG | binds | binds | binds |  |
| Lc8d, ODA light chain (natural protein, Tetrahymena thermophila, UniProt Q24CE5 1-87, looked up) MNHEPEVKATDMEEDMIKRVKEIAINAVKEYKQEKQIAHYIKYEFDKIDGYGWNCIVGRNFGSHIIHQTKKYIFFKINELCLLLWKA | binds | binds | binds |  |
| Lc7, roadblock ODA light chain (natural protein, Tetrahymena thermophila, UniProt I7MHB1 1-133, looked up) MAQDINADDQLKQLSALEGANGYVIFNESGIPLKRHEKSISHEKAVHIAALVSDLWNVSKKVIQRDLKTPENDIEVIRLRTKHSYEYIITQSGDFTMLAIQLCGKAIEEAKKAAAAAAAAAVVQEENKEKEKK |  | binds | binds | binds |
| B1 | binds |  |  |  |
